This data set is described as follows: amyloid nucleation score (Sup35N fusion, yeast selection) (log enrichment); library NNK3; higher = more nucleation; inactive = no reads after selection. The procedure, abridged: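 DiMSum was used to calculate nucleation scores as log enrichment of output over input reads, centred on the mode score of non-aggregating sequences. Sequences with fewer than 100 input reads were not scored. Input and output came from Illumina sequencing of plasmid inserts in psi-negative yeast expressing peptides of 20 random codons fused to Sup35N, induced 24 hours with 100 μM copper sulfate and then grown 7 days at 30°C on medium lacking adenine and uracil.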

± gives the uncertainty stated by the source.

On to LRAEVLSSYVTWVHAEGPHC, for which the amyloid nucleation score result was “inactive”.
The same measure for LWLTLGDGIEGVYPRVGVKL: “inactive”; for TSINFSMAIDLRSHQLERTV: 0.479 ± 0.31; for TLLLIVDNGVNPSLKEMMLL: “inactive”.
Take VDLAIMLVDLLGHSKMYQTG: the amyloid nucleation score result is “inactive”.
Regarding IPFTENSVPPFKGLTVSSNV, the amyloid nucleation score result was “inactive”.
The substance LVFMQRNIENISCCVTLYYQ came in with an amyloid nucleation score of 2.51 ± 0.071.
For LFEYGYCMIGIQLLKRY, the amyloid nucleation score entry was “inactive”.
The entry for REREF is “inactive”; for YTVTASQTYFYSCRDGFAFS it is “inactive”; for GLAQTSLFI it is “inactive”.
The figure for RDPASGVSMCTIIIVKGYTI is 0.57 ± 0.2; for KVLQPANVLRLTGFVSVRGV it is “inactive”; for LHCTLSNSLSYLHDIQQLLH it is “inactive”.
The same measure for QYCDSMTLINQPAAIRGLLW: “inactive”; for MKLCNVRGIKVFAFCSGSRR: 1.3 ± 0.1.
For FFLNLKDMFDHAL, the amyloid nucleation score result is “inactive”.
As to CNWINLNIRSVRIYHPYSRF, the amyloid nucleation score stood at 1.54 ± 0.072.
As to AIFHGIRCSFMSSSLYTNDG, the amyloid nucleation score entry was “inactive”.
The same measure for SINRTKQCLEVNFHLDDCKA: “inactive”.
The entry for ANESMWYSLMLTVFVLAGCM is “inactive”; for CRCGSKNTTVRTLLNRGYSE it is “inactive”; for GVWVA it is -0.931 ± 1.9.
The same measure for GRARMFGLGRVFKVCMKLRA: -0.543 ± 0.54; for CDTFVVNMSQFLSISTMAER: 0.66 ± 0.17; for SNSFTAFVYTYPWDHLVGVL: -0.195 ± 0.47.
Take VIVLNFALLRASLSAGFLMS: the amyloid nucleation score was 0.405 ± 0.28.
In the case of LYNILFWTPNFRFVSWYHCI, the amyloid nucleation score result was “inactive”.
The entry for AMNNAGSGKQEYNRYGEIIN is “inactive”; for ALHFDFIFIYRDRCCCCTFY it is 1.27 ± 0.1.
The same measure for KLLCSLNLVIADEFLTKKGD: 1.85 ± 0.099; for SCNRSSSV: “inactive”; for IFNWFDWIFRFSTTSPECLT: “inactive”.
The entry for SHNVSTWRMICSWLVRPFIR is “inactive”; for RGCGVQMS it is 0.882 ± 0.24.
On to AGPVMRRLFVNGWFVVFGRM, for which the amyloid nucleation score result was “inactive”.
The same measure for LVCHFLDEDCLFACILQNMR: “inactive”.
For the substance IPSVFKLSVWGYADSTCLRR, the amyloid nucleation score entry was “inactive”.
The entry for LRMVRSYVLSNGCL is “inactive”; for SLVWTDRNYVSTNGSSCVWL it is “inactive”; for LIQPFFWCHCHDLAVDESGE it is 1.66 ± 0.11.
As to THRFGMVR, the amyloid nucleation score result is “inactive”.
Take VVWLQFGMEVKSSFSMTSKT: the amyloid nucleation score entry is “inactive”.
The entry for RTSLNGTLGVLSRYGWNISE is “inactive”; for ELRQFSP it is “inactive”; for WHWCCDSNMMRVIFTWFFSL it is “inactive”.
The same measure for DISIPVLKRSFTCSMAYHC: “inactive”; for GRWGGDYFCVGNFMG: “inactive”.
The same measure for LSFPYMMTIFCATRFTDPLM: “inactive”.
In the case of RGNIWIHKK, the amyloid nucleation score is 0.404 ± 0.15.
The same measure for GLRNYRDGVKIASAVSVGAS: “inactive”.
On to RVYHLIWFFYYLYNGHFISS, for which the amyloid nucleation score result was “inactive”.
SVIAMYQFVYYYVSKMVNID: the amyloid nucleation score entry is “inactive”.
The same measure for VCSYSMISHSAKWFVLILEW: “inactive”; for WLVPR: “inactive”; for SCYSLSSESSCSVGMCSTLG: “inactive”.
Consider ISVNALYNLMHKCNYNAKLR, for which the amyloid nucleation score result was “inactive”.
TCSHIIPYWYGVRNSQVRYS: the amyloid nucleation score result is “inactive”.
Turning to DADYLT, the amyloid nucleation score entry was “inactive”.
Turning to ASDRMKGVLNLLQYVGYSSM, the amyloid nucleation score entry is “inactive”.
With STVEENIY, the amyloid nucleation score result was “inactive”.
For the substance LGNRQVRNLATYPDNYLTCT, the amyloid nucleation score result is “inactive”.
The same measure for LINFEY: 1.16 ± 0.073; for GSRLAGLVVYDFSLSQWYFS: 2.84 ± 0.079; for ELIWAEGYRKSCKLGPVIS: “inactive”.
With FYFNRHRHHNVCRYLIGHPC, the amyloid nucleation score result is “inactive”.
The entry for INLPDASS is “inactive”.
Regarding IEGTAMTVTFTFNPYPFHET, the amyloid nucleation score entry was “inactive”.
For the substance RHQDYLHADGLNMAISITRI, the amyloid nucleation score entry is “inactive”.
The entry for RFSWNENVGVDGQHLPEVER is “inactive”; for LLVKSYNLYIMFSPHL it is 1.68 ± 0.078; for TSTELFRSGSVLRKPRMSSA it is -0.255 ± 1.1.
The entry for SLPNA is “inactive”; for GSEMVAGHS it is “inactive”.
The entry for YFVPWGFAKDRRKTHDLPAE is “inactive”; for LFHHNCWNSNLSKVYMPACN it is 0.761 ± 0.1; for VGTFRGSEGPRFVLVV it is -0.486 ± 1.9.
Regarding FYVASFWYYPKSEHNGA, the amyloid nucleation score entry was “inactive”.
Turning to HEISSICTRFWANSLIRMSC, the amyloid nucleation score result was “inactive”.
The entry for QEVAMRAISLSLPARWSVPC is “inactive”.
The same measure for LKRLHFKSGDMSGQRQFRGS: “inactive”; for CLACFI: “inactive”.
Consider LGLECVGPFCKGVYFWLDG, for which the amyloid nucleation score result is “inactive”.
Substance HNNYHYIVRSFVGI came in with an amyloid nucleation score of 1.01 ± 0.28.
The same measure for RWNLDWSSLSAGHGKYSQEY: “inactive”; for VRCSR: “inactive”; for SCPLR: “inactive”.
The same measure for SKMLIWSYLHGGNRCDLSDW: “inactive”; for GIGVSESRCVTVIWYYGGAV: “inactive”; for VLPNIQFFYCMCWVMLYLPF: “inactive”.
The same measure for KLLSSGFMMFWASYQTGYWR: “inactive”; for GIGILEVWVSVRYGSWFKRI: “inactive”.
Substance PNGREWIMKYVGDAGYRVLS displayed an amyloid nucleation score of 0.515 ± 0.36.
As for SLSYTRCCQNTILIKRYGLE, the amyloid nucleation score result was “inactive”.
In the case of TPLADN, the amyloid nucleation score is -0.224 ± 0.73.
The same measure for PFRNMLGMNPNSQTLRVMVR: “inactive”.
The entry for CSLWSMQGYLHEWRICCWRH is “inactive”.
The entry for CLSTFLGRSEKPL is “inactive”.
Turning to VWQYNDGSYCVVMYVSSSDY, the amyloid nucleation score turned out to be 1.06 ± 0.19.
The entry for LGAAFCAPSSSYGKMGP is “inactive”.
Turning to LLHCQCSC, the amyloid nucleation score result is “inactive”.
LWVRIKARTFNFS came in with an amyloid nucleation score of 0.228 ± 0.19.
In the case of FLIPQGERSVLCMGCYFLYA, the amyloid nucleation score came out at 1.85 ± 0.098.
The entry for SCVMSWIFWNFVWCYSVRCV is “inactive”.
The entry for VSDYYDKYGLYFCWFWDGYK is “inactive”; for YLVFFA it is “inactive”; for YRLCRGFNSFI it is “inactive”.
On to VIDDHMFQRKRQMVLKKQLN, for which the amyloid nucleation score result was “inactive”.
Regarding TLCLQKHPSFGDYIFG, the amyloid nucleation score entry was “inactive”.
The entry for LVRKAAVPN is “inactive”; for TCSLFFSYPYIGRQHGCGRY it is 0.444 ± 0.46; for SLLSRFIEEGASCRCTRDG it is “inactive”.
The figure for SYKSLNCALFLQ is 0.574 ± 0.24; for TICLSRVTYVSRQEWGSASV it is -0.023 ± 1.
TGRAFIIPVHAFRYDSVVGV: the amyloid nucleation score entry was “inactive”.
For SLGFCKVGALLRWFCSQCQG, the amyloid nucleation score amounted to 0.561 ± 0.37.
The same measure for NVRGNNLSRM: “inactive”; for AFYYWVDEMVSLNIRLSFYN: “inactive”.
The same measure for SLCFIWTCMSLVVHTALSVH: “inactive”.
The entry for MMMCG is “inactive”; for RNLVWA it is “inactive”; for TIFGDCAEYSYVVLFINLFI it is 2.1 ± 0.098.
For the substance PSLRRTSLGSLKSSMANSWQ, the amyloid nucleation score entry was “inactive”.
The entry for IPRVDLLLCLDSIGLGRSLN is “inactive”; for DTVRHLISYRGLGRLHRHTM it is “inactive”; for DPGHRGLTDFYSMFRL it is “inactive”.
The entry for VHSCLLCHWSFYWLLFFMRS is “inactive”; for NQVRVSKSVNRAIDASPEWD it is “inactive”; for RKLSAHLQEGD it is “inactive”.
In the case of MLEEGVHINSGLMIVWYIIM, the amyloid nucleation score result was “inactive”.
The same measure for YVFVRS: “inactive”.

The values above are taken from the supplement of paper PMC12042874.
